Assay results reported in article PMC8805024.

Molecular target: Acinetobacter baumannii AdeJ multidrug efflux pump (Acinetobacter baumannii AB0057)
Experiment: cryo-EM structure; single-particle cryo-EM of 10 uM AdeJ-nanodisc (MSP 1E3D1, E. coli total lipid extract) incubated with 20 uM TP-6076 for 1 h; 2.91 Å; asymmetric trimer of access, binding and extrusion protomers

Acinetobacter baumannii AdeJ multidrug efflux pump (natural protein)
stoichiometry N: 3
